Experiment: yeast display, Sf9 membrane polyspecificity reagent, FACS + sequencing; frameworks hold sequencing errors
How it was run: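 Genes from sorted yeast were amplified by colony PCR, read by MiSeq 2 × 250 sequencing and filtered on CDR length. These cells carried a synthetic nanobody library in Saccharomyces cerevisiae BJ5465 and were sorted by FACS into low and high (top ~1%) gates on anti-HA and streptavidin fluorescence. Polyreactivity is labelled according to the gate of origin.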
For “QVQLVESGGGLVQAGGSLRLSCAASGSTFKYYAMGWYRQAPGKERELVASITRTGSSTYYADSVKGRFTISRDNAKNTVYLQMNSRKPEDTAVYYCNTGPHSVWWHYGYDYWGQGTQVTVSS”, the “polyreactivity (PSR sort gate)” value was “high polyreactivity”.
In the case of “QVQLVESGGGLVQAGGSLRLSCAASGSTFLANTMGWYRQAPGKEREFVAAITRRGGSTYYADSVKGRFTISRDNAKNTVYLQMNSLKPEDTAVYYCNAEWDFQYPYDYWGQGTQVTVSS”, the “polyreactivity (PSR sort gate)” value is reported as “low polyreactivity”.
With “QVQLVESGGGLVQAGGSLRLSCAASGSTFLDNAMGWYRQAPGKERELVASITSSGGNTYYADSVKGRFTISRDNAKNTVYLQLNSLTPEDTAVYYCAADAASYWRYNSANYDYDYWGQGTQVTVSS” the “polyreactivity (PSR sort gate)” value was “low polyreactivity”.
With “QVQLVESGGGLVQAGGSLRLSCAASGSTFLGNAMGWYRQAPGKERELVAGITSGGTTNFADSVKGRFTISRDNAKNTVYLQMNSLKPEDTAVYYCNADVWIGQRLDPGYDFDYWGQGTQVTVSS” the “polyreactivity (PSR sort gate)” value was “low polyreactivity”.
With “QVQLVESGGGLVQAGGSLRLSCAASGSTFLGNAMGWYRQAPGKERELVATITGSSGSTYYADSVKGRFTISRDNAKNTVYLQMNSLKPEDTAVYYCAAQRRVVGRHGLSLIRYDYWGQGTQVTVSS” the “polyreactivity (PSR sort gate)” value was “low polyreactivity”.
With “QVQLVESGGGLVQAGGSLRLSCAASGSTFLGNVMGWYRQAPGKERELVAAISRGGSRTYYADSVKGRFTISRDNAKNTVYLQMNSLKPEDTAVYYCAAEPYAASRSGEFNYWGQGTQVTVSS” the “polyreactivity (PSR sort gate)” value was “low polyreactivity”.
With “QVQLVESGGGLVQAGGSLRLSCAASGSTFLGNVMGWYRQAPGKERELVAAITSTGGNTYYADSVKGRFTISRDNAKNTVYLQMNSLKPEDTAVYYCAKKYVWTHNYWGQGTQVTVSS” the “polyreactivity (PSR sort gate)” value was “low polyreactivity”.
With “QVQLVESGGGLVQAGGSLRLSCAASGSTFLGYDMGWYRQAPGKERELVAAISIGGSTYYADSVKGRFTISRDNAKNTVYLQMNSLKPEDTAVYYCARVTWGHQVIYGLSDYDSWGQGTQVTVSS” the “polyreactivity (PSR sort gate)” value was “low polyreactivity”.
For “QVQLVESGGGLVQAGGSLRLSCAASGSTFLHSAMGWYRQAPGKEREFTYYADSVKGRFTISRDNAKNTVYLQMHSLKPEDTAGYYCNAGPYWSPYGDDVGYWGQGTQVTVSS”, the “polyreactivity (PSR sort gate)” value was “low polyreactivity”.
With “QVQLVESGGGLVQAGGSLRLSCAASGSTFLINAMGWYRQAPGKERELVAAISRDGSTNYADSVKGRFTISRDNAKNTVYLQMNSLKPEDTAVYYCAAVQGISVGRQPGYDYDYWGQGTQVTVSS” the “polyreactivity (PSR sort gate)” value was “low polyreactivity”.
With “QVQLVESGGGLVQAGGSLRLSCAASGSTFLLYAMGWYRPAPGKERELVATISWGGDGTYYADSVKGRFTISRDNAKNTVYLQMNSLKPEDTAVYYCAAESYLVQFYFLYYYWGQGTQVTVSS” the “polyreactivity (PSR sort gate)” value was “low polyreactivity”.
For “QVQLVESGGGLVQAGGSLRLSCAASGSTFLLYAMGWYRQEPGKERELVAAITWSGASTYYADSVKGRFTISRDNAKNTVYLQMNSLKPEDTAVYYCATRYRYRYWGQGTQVTVSS”, the “polyreactivity (PSR sort gate)” value was “high polyreactivity”.
For “QVQLVESGGGLVQAGGSLRLSCAASGSTFLLYDKGWYRQAPGKERELVAAITWSGGSTYYADSVKGRFTISRDNAKNTVYVQMNSLIPEDTAVYYCAADSLGDRYYYWGQGTQVTVSS”, the “polyreactivity (PSR sort gate)” value was “low polyreactivity”.
For “QVQLVESGGGLVQAGGSLRLSCAASGSTFLPYGMGWYRQAPGKERELVAAITQRGGSTYYADSVKGRFTISRDNAKNTVYLQMNSLKPEDTAVYYCAARYTGRRRLWTGPGYEYWGQGTQVTVSS”, the “polyreactivity (PSR sort gate)” value was “high polyreactivity”.
With “QVQLVESGGGLVQAGGSLRLSCAASGSTFLRNVMGWYRQAPGKERELVAAISSRGGSTHYADSVKGRFTISRDNAKNTVYLQMNSLKPEDTAVYYCNSERTAAQYVRAAYDYWGQGTQVTVSS” the “polyreactivity (PSR sort gate)” value was “low polyreactivity”.
With “QVQLVESGGGLVQAGGSLRLSCAASGSTFLRYAMGWYRQAPGKERELVAAISVSGGSTYYADSVKGRFTISRDNAKNTVYLQMNSLKPEDTAVYYCNAVTKFHRRYNYWGQGTQVTVSS” the “polyreactivity (PSR sort gate)” value was “high polyreactivity”.
With “QVQLVESGGGLVQAGGSLRLSCAASGSTFLSYAMGWYRQAPGKERELVAAISCRGGSTYYADSVKGRFTISRDNAKNTVYLQMNSLKPEDTAVYYCARVYRPSADTYNYWGQGTKVTVSS” the “polyreactivity (PSR sort gate)” value was “high polyreactivity”.
In the case of “QVQLVESGGGLVQAGGSLRLSCAASGSTFLSYAMGWYRQAPGTERELVAGIDWSTGDTYYADSEKGRFTISRDNAKNTVYLQMNSLKPEDTAVYYCNKANLYRFWEIDYWGQGTQVTLSS”, the “polyreactivity (PSR sort gate)” value is reported as “high polyreactivity”.
For “QVQLVESGGGLVQAGGSLRLSCAASGSTFLTNAIGWYRQATGKEREIVADITWSGGSTYYADSVKGRFTISRDNAKNTVYLQMNSLKPEDTAVYYCAVDAYSSVYLWGFVRFDYWGQGTQVTVSS”, the “polyreactivity (PSR sort gate)” value was “low polyreactivity”.
In the case of “QVQLVESGGGLVQAGGSLRLSCAASGSTFLTYAMGWYRQAPGKERELVAAIRWSGGSTYYADSVKGRFTISRDNAKNTVYLQMNSLKPEDTAVYYCAARSPRASGNSDYWGQGTQVTVSS”, the “polyreactivity (PSR sort gate)” value is reported as “high polyreactivity”.
With “QVQLVESGGGLVQAGGSLRLSCAASGSTFLVNAMGWYRQAPGKERELVAAISRSTGSTYYADSVKGRFTISRDNAKNTVYLQMNSLKPEDTAVYYCAVYRHGYGYNYWGQGSQVTVSS” the “polyreactivity (PSR sort gate)” value was “high polyreactivity”.
In the case of “QVQLVESGGGLVQAGGSLRLSCAASGSTFLYYAMGWYIQAPGKERELVAAISRSGGNTYYADSVKGRFTISRDNAKNTVYLQMNSLKPEDTAVDYCAKSPPGRGIRRLYYYWGQGTQVTVSS”, the “polyreactivity (PSR sort gate)” value is reported as “high polyreactivity”.
With “QVQLVESGGGLVQAGGSLRLSCAASGSTFLYYAMGWYRPAPGKERELVAAIRWTAGSTYYADSVKGRFTISRDNAKNSVYLQMNSLKPEDTAVYYCAAVGYVRNYYTYEHWGQGTQVTVSS” the “polyreactivity (PSR sort gate)” value was “low polyreactivity”.
With “QVQLVESGGGLVQAGGSLRLSCAASGSTFLYYAMGWYRQAPGKERELVAVISWSCVSTYYADSVKGRFTISRDNAKYTVYLQMNSLKPEDTAVSYCAADWDWRFHRMNYWGQGTQVTVSS” the “polyreactivity (PSR sort gate)” value was “low polyreactivity”.
In the case of “QVQLVESGGGLVQAGGSLRLSCAASGSTFLYYAMGWYRQAPGKERELVAVISWSGVSTYYADSVKGRFTISRYNAKNTVYLQMNSLKPEDTAVYYCNTGNHYIRTYGYWGLGTQVTVSS”, the “polyreactivity (PSR sort gate)” value is reported as “low polyreactivity”.
With “QVQLVESGGGLVQAGGSLRLSCAASGSTFLYYGMGWYRQAPGKERALVAGIDGTGSSTYYADSVKGRFTISRDNAKNTVYLQMNSLKPEDTAVYYCAKRYPRYRSRYYYWGQGTQVTVSS” the “polyreactivity (PSR sort gate)” value was “low polyreactivity”.
For “QVQLVESGGGLVQAGGSLRLSCAASGSTFNDNAMGWYRPAPGKERELVAAIRWSGGSTYYADSVKGRFTISRDNAKNTVYLQMNSLKPEDTAVYYCAASRRYYLTYRYYYWGQGTQVTVSS”, the “polyreactivity (PSR sort gate)” value was “high polyreactivity”.
With “QVQLVESGGGLVQAGGSLRLSCAASGSTFNDNAMGWYRQAPGKERELVAAIRWSGGSTYYADSVKGRFTISRDNAKNTVYLQMNSLKPEDTAVYYCAASRRYYLTYRYYYWGQGTQVTVSS” the “polyreactivity (PSR sort gate)” value was “high polyreactivity”.
With “QVQLVESGGGLVQAGGSLRLSCAASGSTFNEYVMGWYRQAPGKERELVAAITGGGGRTYYADSVKGRFTISRDNAKNTVYLQMNSQKPEDTAVYYCAKRYLYGTYWGFFRYDYWGQGTQVTVSS” the “polyreactivity (PSR sort gate)” value was “low polyreactivity”.
With “QVQLVESGGGLVQAGGSLRLSCAASGSTFNKYAMGWYRQAPGKERELVAAIRSNGVRTYYADSVKGRFTISRDNAKNTVYLQMNSLKPEDTAVYYCNKRYTYRYDYWGQGTQVTVSS” the “polyreactivity (PSR sort gate)” value was “high polyreactivity”.
With “QVQLVESGGGLVQAGGSLRLSCAASGSTFNPYAMAWYRQAPGKEREFVAAISWRGGSTYYADSVKGRFTISRDNAKNTVYLQMNSLKPEDTAVYYCAARRLYSHTTSGRGYWGQGTQVTVSS” the “polyreactivity (PSR sort gate)” value was “high polyreactivity”.
With “QVQLVESGGGLVQAGGSLRLSCAASGSTFNPYAMGWYRQAPGKERELVATITWRGTSTYYADSVKGRFTISRDNAKNTVYLQMNSLKPEDTPVYYCAARVRYKYDYWGQGTQVTVSS” the “polyreactivity (PSR sort gate)” value was “high polyreactivity”.

— the nanobody polyreactivity screen of Harvey et al. (2022)
